Starred links: 1 amine or outer side, 2 acyl side, 3 side chain; linkers in the order of their positions; H or OH if unused. Non-standard residues stand in square brackets, D forms with d. Groups on a side chain read outwards from the residue. No end group written: not given here. *: point of attachment. γGlu = O=C(O)[C@H](CCC(=O)[*:2])N[*:1]; Palmitoyl = CCCCCCCCCCCCCCCC(=O)*; Aib = CC(C)(N)C(=O)O
T1: human GIP receptor (human, UniProt P48546 22-466)
T1 sequence (looked up): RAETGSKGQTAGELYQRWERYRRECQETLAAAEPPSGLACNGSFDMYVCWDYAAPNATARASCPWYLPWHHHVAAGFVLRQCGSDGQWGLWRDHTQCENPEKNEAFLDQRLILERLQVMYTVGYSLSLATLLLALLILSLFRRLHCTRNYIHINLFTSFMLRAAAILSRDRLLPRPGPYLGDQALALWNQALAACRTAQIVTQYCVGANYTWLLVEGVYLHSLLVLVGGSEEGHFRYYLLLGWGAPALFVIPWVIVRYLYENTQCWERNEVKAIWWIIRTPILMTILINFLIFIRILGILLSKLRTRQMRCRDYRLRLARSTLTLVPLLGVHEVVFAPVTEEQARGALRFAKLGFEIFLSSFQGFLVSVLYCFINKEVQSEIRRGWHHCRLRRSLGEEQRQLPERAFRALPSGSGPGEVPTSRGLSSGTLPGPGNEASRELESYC

B1: exendin-4 derivative SEQ ID NO: 11 (peptide)
peptide: H[Aib]QGTFTSDLSKQK([γGlu-Palmitoyl])DEQRAKLFIEWL[Aib]A[dA]GPSSGAPPPS-NH2
modifications: N-terminus assumed
SMILES: CCCCCCCCCCCCCCCC(=O)N[C@@H](CCC(=O)NCCCC[C@H](NC(=O)[C@H](CCC(N)=O)NC(=O)[C@H](CCCCN)NC(=O)[C@H](CO)NC(=O)[C@H](CC(C)C)NC(=O)[C@H](CC(=O)O)NC(=O)[C@H](CO)NC(=O)[C@@H](NC(=O)[C@H](Cc1ccccc1)NC(=O)[C@@H](NC(=O)CNC(=O)[C@H](CCC(N)=O)NC(=O)C(C)(C)NC(=O)[C@@H](N)Cc1c[nH]cn1)[C@@H](C)O)[C@@H](C)O)C(=O)N[C@@H](CC(=O)O)C(=O)N[C@@H](CCC(=O)O)C(=O)N[C@@H](CCC(N)=O)C(=O)N[C@@H](CCCNC(=N)N)C(=O)N[C@@H](C)C(=O)N[C@@H](CCCCN)C(=O)N[C@@H](CC(C)C)C(=O)N[C@@H](Cc1ccccc1)C(=O)N[C@H](C(=O)N[C@@H](CCC(=O)O)C(=O)N[C@@H](Cc1c[nH]c2ccccc12)C(=O)N[C@@H](CC(C)C)C(=O)NC(C)(C)C(=O)N[C@@H](C)C(=O)N[C@H](C)C(=O)NCC(=O)N1CCC[C@H]1C(=O)N[C@@H](CO)C(=O)N[C@@H](CO)C(=O)NCC(=O)N[C@@H](C)C(=O)N1CCC[C@H]1C(=O)N1CCC[C@H]1C(=O)N1CCC[C@H]1C(=O)N[C@@H](CO)C(N)=O)[C@@H](C)CC)C(=O)O
B2: exendin-4 derivative SEQ ID NO: 10 (peptide)
peptide: H[Aib]QGTFTSDLSKQK([γGlu-Palmitoyl])DEQRAKLFIEWL[Aib]AGGPSSGAPPPS-NH2
modifications: N-terminus assumed
SMILES: CCCCCCCCCCCCCCCC(=O)N[C@@H](CCC(=O)NCCCC[C@H](NC(=O)[C@H](CCC(N)=O)NC(=O)[C@H](CCCCN)NC(=O)[C@H](CO)NC(=O)[C@H](CC(C)C)NC(=O)[C@H](CC(=O)O)NC(=O)[C@H](CO)NC(=O)[C@@H](NC(=O)[C@H](Cc1ccccc1)NC(=O)[C@@H](NC(=O)CNC(=O)[C@H](CCC(N)=O)NC(=O)C(C)(C)NC(=O)[C@@H](N)Cc1c[nH]cn1)[C@@H](C)O)[C@@H](C)O)C(=O)N[C@@H](CC(=O)O)C(=O)N[C@@H](CCC(=O)O)C(=O)N[C@@H](CCC(N)=O)C(=O)N[C@@H](CCCNC(=N)N)C(=O)N[C@@H](C)C(=O)N[C@@H](CCCCN)C(=O)N[C@@H](CC(C)C)C(=O)N[C@@H](Cc1ccccc1)C(=O)N[C@H](C(=O)N[C@@H](CCC(=O)O)C(=O)N[C@@H](Cc1c[nH]c2ccccc12)C(=O)N[C@@H](CC(C)C)C(=O)NC(C)(C)C(=O)N[C@@H](C)C(=O)NCC(=O)NCC(=O)N1CCC[C@H]1C(=O)N[C@@H](CO)C(=O)N[C@@H](CO)C(=O)NCC(=O)N[C@@H](C)C(=O)N1CCC[C@H]1C(=O)N1CCC[C@H]1C(=O)N1CCC[C@H]1C(=O)N[C@@H](CO)C(N)=O)[C@@H](C)CC)C(=O)O

Assays:
Test in all cases: cell-based or functional assay
[1] = target: human glucagon receptor (human, UniProt P47871 26-477)
[2] = target: T1, human GIP receptor
[3] = target: human GLP-1 receptor (human, UniProt P43220 24-463)

Chain of human glucagon receptor (P47871 26-477): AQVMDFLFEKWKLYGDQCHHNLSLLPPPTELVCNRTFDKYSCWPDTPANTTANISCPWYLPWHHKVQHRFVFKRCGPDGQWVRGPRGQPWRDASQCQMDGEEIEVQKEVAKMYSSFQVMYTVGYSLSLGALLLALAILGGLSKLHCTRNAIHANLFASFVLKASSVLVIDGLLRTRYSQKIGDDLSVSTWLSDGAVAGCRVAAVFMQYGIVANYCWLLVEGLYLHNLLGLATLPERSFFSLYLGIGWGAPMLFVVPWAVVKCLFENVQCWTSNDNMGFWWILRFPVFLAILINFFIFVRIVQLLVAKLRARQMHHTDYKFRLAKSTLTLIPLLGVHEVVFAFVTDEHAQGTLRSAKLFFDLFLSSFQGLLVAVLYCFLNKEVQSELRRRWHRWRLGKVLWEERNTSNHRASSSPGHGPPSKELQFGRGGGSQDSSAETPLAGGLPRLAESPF

Row | Binder | EC50 hGlucagon-R (cAMP formation) [1] | EC50 hGIP-R (cAMP formation) [2] | EC50 hGLP-1R (cAMP formation) [3]
1 | B1 | 261 pM | 13400 pM | 10.3 pM
2 | B2 | 52.4 pM | 890 pM | 3.5 pM
